Results as given in the supplement of paper PMC11908140.

B1: library; numbered along this chain (parent)
chain: MRKPRAAVGSGHRKQAASQEGRQKHAKNNSQAKPSACDGLARQPEEVVLQASVSSYHLFRDVAEVTAFRGSLLSWYDQEKRDLPWRRRAEDEMDLDRRAYAVWVSEVMLQQTQVATVINYYTGWMQKWPTLQDLASASLEEVNQLWAGLGYYSRGRRLQEGARKVVEELGGHMPRTAETLQQLLPGVGRYTAGAIASIAFGQATGVVDGNVARVLCRVRAIGADPSSTLVSQQLWGLAQQLVDPARPGDFNQAAMELGATVCTPQRPLCSQCPVESLCRARQRVEQEQLLASGSLSGSPDVEECAPNTGQCHLCLPPSEPWDQTLGVVNFPRKASRKPPREESSATCVLEQPGALGAQILLVQRPNSGLLAGLWEFPSVTWEPSEQLQRKALLQELQRWAGPLPATHLRHLGEVVHTFSHIKLTYQVYGLALEGQTPVTTVPPGARWLTQEEFHTAAVSTAMKKVFRVYQGQQPGTCMGSKRSQVSSPCSRKKPRMGQQVLDNFFRSHISTDAHSLNSAAQ

Variants of: B1
Assay: 8OG:A repair function score (normalized; synonymous = 0, nonsense = -1) (normalized log-likelihood score); higher = more repair activity (WT-like)
Conditions: with 8OG:A DNA repair reporter (GFP) in HEK-293 MUTYH KO cells
Experimental: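 Saturation mutagenesis (NNN codon scan) of the MUTYH cDNA (521-aa nuclear isoform NM_001048174.1 / NP_001041639), stably expressed under doxycycline induction in HEK-293 MUTYH knockout cells. Cells were co-transfected with an 8OG:A-bearing GFP repair reporter plus mCherry and sorted 72 h later into GFP+ and GFP− bins, three replicates per tile. The Rosace log2 enrichment (GFP+ vs GFP−) was converted per tile to a normalized function score with synonymous variants centered at 0 and nonsense variants (codons 1-471) at -1; low-abundance variants were removed.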

8OG:A repair function score: each site, then its substitutions
P185: T -0.242; W -0.553; K -0.102; V -0.299; A -0.225; L -0.344; D -0.333; I -0.275; G -0.141; N -0.12; H -0.43; Q -0.197; S -0.221; R -0.264; E -0.168; Y -0.363; F -0.285; M -0.282; C -0.242
T179: D 0.248; W -0.0647; E -0.0168; I -0.04; L 0.0629; P -0.236; H 0.0778; G 0.108; Y -0.146; S 0.00681; R 0.0462; N -0.0369; K 0.0976; Q -0.0228; A -0.088; V -0.0453; F -0.0885; M 0.0538; C -0.0042
R189: S -0.0964; D -0.22; P 0.136; V -0.148; Q -0.208; Y -0.336; K -0.0681; E -0.385; L -0.316; H -0.228; M -0.341; T -0.184; I -0.335; W -0.343; A -0.136; F -0.222; C -0.258; G -0.299; N -0.421
L183: G -0.0301; M -0.13; R -0.105; I -0.112; W -0.0703; T -0.0372; H 0.0988; E -0.0475; D -0.21; Y 0.0742; C -0.208; A -0.0103; P -0.826; N -0.102; Q 0.0196; V 0.0213; F -0.0771; K -0.0447; S 0.0487
Q182: M -0.0488; S 0.0262; D -0.0172; L -0.0117; N -0.133; R -0.0127; P -0.18; T -0.0374; G -0.00226; C -0.0792; Y 0.00409; I -0.0148; F -0.161; A 0.0281; V -0.022; H 0.0507; W -0.114; E -0.0278; K 0.129
T176: G -0.216; N 0.0341; S -0.0317; K -0.0846; H -0.0301; I -0.31; R -0.102; L -0.174; Y -0.16; Q -0.0945; F -0.157; E -0.128; C -0.0512; M -0.28; W -0.419; A -0.251; V -0.285; P -0.429; D 0.00933
G188: Q -0.909; E -0.866; R -0.844; T -1.03; C -0.839; I -1.11; F -1.06; L -0.95; H -0.662; D -1.09; A -0.365; S -0.643; V -1.04; P -0.845; N -0.923; M -0.929; K -1.11; Y -0.89; W -1.02
M173: D -0.926; C -0.257; S -0.859; H -0.672; A -0.537; P -0.654; N -0.945; E -1.13; V -0.0935; G -0.965; T -0.402; W -0.276; L -0.00175; K -0.971; Y -0.366; I 0.0625; Q -0.93; R -1.15; F -0.014
G171: W -0.633; T -0.321; Y -0.628; V -0.443
P174: I -0.9; F -0.961; M -0.732; Y -0.958; Q -0.827; D -0.922; W -1.14; T -0.922; H -0.972; G -0.814; K -0.797; V -0.797; N -0.958; C -0.583; S -0.753; E -0.932; L -0.947; R -0.877; A -0.706
A177: K -0.0185; I -0.142; Q -0.125; T -0.226; C -0.0436; S -0.1; L -0.213; D -0.363; F -0.273; H -0.14; W -0.324; Y -0.194; M -0.0819; V -0.207; E -0.368; R -0.127; N -0.0568; P -0.0959; G -0.166
Q181: D -0.331; N -0.118; V -0.114; I -0.0381; H -0.175; Y 0.00604; G -0.165; T -0.0945; M -0.0648; L -0.0425; K -0.0739; A -0.034; R -0.0552; P -0.726; E 0.0231; W -0.337; F -0.0623; S -0.0472; C -0.121
G186: N -0.814; R -1.16; S -0.34; L -1.02; I -1.23; V -0.852; K -0.9; Y -0.992; Q -0.401; E -0.989; F -1.04; H -0.754; A -0.672; M -0.885; P -0.924; T -0.373; W -1.08; D -0.855; C -0.439
Y190: E -0.808; C -0.373; H -0.198; G -0.381; F -0.574; D -0.858; A -0.38
L184: K -0.925; V -0.238; D -1.16; I -0.0822; E -1.09; F -0.304; P -1.21; Q -0.899; C -0.317; T -0.62; R -1.2; W -1.13; N -0.987; H -1.05; M -0.281; Y -0.855; A -0.718; G -0.899; S -0.911
L180: Q -0.655; K -0.838; G -0.785; E -0.764; V -0.497; A -0.223; Y -0.571; F -0.576; R -1.18; I -0.119; W -0.713; H -1.24; D -1.1; T -0.439; N -1.02; S -0.679; C -0.258; P -1.03
E178: P -0.125; Q -0.0318; A 0.0541; H -0.0501; F -0.0911; R 0.0879; I -0.0162; K 0.0383; S -0.037; L -0.106; G -0.126; C -0.0388; N 0.0803; W -0.0455; Y 0.00398; M 0.0407; T 0.0829; V -0.12; D -0.000297
V187: L -0.609
H172: F -0.0443; I -0.0329; L -0.0966; Q 0.0285; V 0.0577; Y -0.0294; A -0.0729; R -0.0155; P -0.512; D -0.0948; C -0.0393; S 0.0204; M 0.0264; T 0.0683; W -0.21; N -0.0786; E 0.017; G -0.216; K 0.118
R175: G -0.166; T -0.00924; E 0.0279; F -0.197; S -0.0258; V -0.148; D -0.192; I -0.189; K -0.133; N -0.0345; A -0.0909; Y -0.175; L -0.252; Q 0.0309; C -0.0695; M -0.155; W -0.356; P -0.229; H -0.116
